For this assay, the target named is baker's yeast alcohol dehydrogenase (baker's yeast) (UniProt P00330). Briefly: native MS; nano-ESI from 0.2 mol/L ammonium acetate, protein 2 to 5 x 10^-6 mol/L, Q Exactive UHMR modified for deposition.

With “baker's yeast alcohol dehydrogenase (from UniProt P00330 1-348) (enzyme)”, the stoichiometry N amounted to 4.

As usually defined, the stoichiometry N is a count of units in the complex or per binding partner.

The values are drawn from PMC9527803.
